Assay results reported in PMC3873459.

Experiments:
[1] = biological target: pfiT, tag-less (GST removed with PreScission protease) (Pseudomonas fluorescens); assay: AUC; sedimentation equilibrium, pfiT alone at 9 µM and 18 µM, 20°C, 20,000/25,000/30,000 rpm, HBS; global fit with monomer-dimer model (SEDPHAT); dimer to monomers
[2] = biological target: recombinant HLA-DR1 protein bound to a hemagglutinin (HA) peptide; assay: pull-down
[3] = biological target: pfiT, tag-less (GST removed with PreScission protease) (Pseudomonas fluorescens); assay: AUC; sedimentation velocity, pfiT alone at 3.6 µM, 20°C, 50,000 rpm, 10 mM Hepes pH 7.4, 150 mM NaCl, 2 mM DTT; c(s) and c(M) distributions (SEDFIT)

## pfiT, tag-less (GST removed with PreScission protease) (natural protein)
[1]
  Kd: 0.15 µM
[2]
  IC50: 47 µM
[3]
  stoichiometry N: 2
